The results in this text go back to US20130019345A1 (NATIONAL UNIVERSITY CORPORATION NARA INSTITUTE OF SCIENCE …, published 2013).

Assay [1] addresses 14-3-3 protein (endogenous rice OsGF14; isoform not specified). The assay is described as follows: cell-based or functional assay.
Assay [2] concerns the target T1, OsGF14b mutant D233A, yeast two-hybrid fusion (rice, UniProt Q7XTE8 1-262).
T1 construct: not shown: two-hybrid fusion partner encoded by pBTM116-GW or pVP16-GW
T1 sequence: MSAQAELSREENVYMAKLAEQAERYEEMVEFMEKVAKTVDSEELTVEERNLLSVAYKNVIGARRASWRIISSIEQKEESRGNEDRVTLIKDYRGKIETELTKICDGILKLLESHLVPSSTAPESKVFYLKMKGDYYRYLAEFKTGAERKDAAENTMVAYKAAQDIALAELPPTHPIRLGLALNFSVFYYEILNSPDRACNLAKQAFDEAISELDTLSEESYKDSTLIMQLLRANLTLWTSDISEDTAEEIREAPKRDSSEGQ
The assay is described as follows: yeast two-hybrid, growth on selective medium. How it is done: (§1) For an interaction assay, pBTM116 and pVP16 were converted to pBTM116-GW and pVP16-GW, respectively, using a Gateway vector conversion system (Invitrogen) according to the manufacturer's instructions. Yeast cells were grown at 30° C. for 5 days using an SC medium (without uracil, tryptophan, leucine, and histidine), the medium containing added histidine or 1 to 10 mM 3-aminotriazole (+His or +3-AT). The concentration of 3-AT was determined by a bait-prey combination.
(§2) Various mutant proteins were produced by constructing plasmids as described below. […] The PCR-amplified fragments were cloned into a pENTR/D-TOPO cloning vector (Invitrogen) to obtain entry clones.

Assay [3] has as its target T2, OsGF14b mutant F206A, yeast two-hybrid fusion (rice, UniProt Q7XTE8 1-262).
T2 construct: not shown: yeast two-hybrid fusion partner encoded by pBTM116-GW or pVP16-GW, and its linker
T2 sequence: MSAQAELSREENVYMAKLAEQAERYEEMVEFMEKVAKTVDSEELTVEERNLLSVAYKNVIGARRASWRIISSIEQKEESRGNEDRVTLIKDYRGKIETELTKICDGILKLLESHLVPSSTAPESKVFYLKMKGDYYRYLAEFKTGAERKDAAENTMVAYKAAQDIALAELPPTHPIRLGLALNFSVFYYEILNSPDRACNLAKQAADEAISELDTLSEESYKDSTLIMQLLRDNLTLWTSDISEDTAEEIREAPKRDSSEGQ
Kind of assay: yeast two-hybrid, growth on selective medium. The procedure:
as §1, §2

The target in assay [4] is T3, OsGF14b mutant E218A, yeast two-hybrid fusion (rice, UniProt Q7XTE8 1-262).
T3 construct: not shown: yeast two-hybrid fusion partner encoded by pBTM116-GW or pVP16-GW, and its linker
T3 sequence: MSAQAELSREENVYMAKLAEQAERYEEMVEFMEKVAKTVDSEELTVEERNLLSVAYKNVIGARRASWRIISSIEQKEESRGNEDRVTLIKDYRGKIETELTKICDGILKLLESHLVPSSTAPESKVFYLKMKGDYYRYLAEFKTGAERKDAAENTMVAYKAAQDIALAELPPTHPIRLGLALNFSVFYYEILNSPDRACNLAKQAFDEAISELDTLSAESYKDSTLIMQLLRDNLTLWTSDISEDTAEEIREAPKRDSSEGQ
The assay is described as follows: yeast two-hybrid, growth on selective medium. The procedure:
as §1, §2

Assay [5] addresses T4, OsGF14b mutant R232A, yeast two-hybrid fusion (rice, UniProt Q7XTE8 1-262).
T4 construct: not shown: two-hybrid fusion partner encoded by pBTM116-GW or pVP16-GW
T4 sequence: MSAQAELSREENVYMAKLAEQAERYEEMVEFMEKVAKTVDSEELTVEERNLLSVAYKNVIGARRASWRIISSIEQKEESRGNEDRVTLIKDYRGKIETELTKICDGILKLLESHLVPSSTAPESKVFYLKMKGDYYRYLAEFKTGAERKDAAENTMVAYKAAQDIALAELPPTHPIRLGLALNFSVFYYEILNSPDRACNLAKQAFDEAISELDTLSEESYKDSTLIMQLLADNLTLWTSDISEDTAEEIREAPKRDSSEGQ
Kind of assay: yeast two-hybrid, growth on selective medium. The procedure: as §1, §2

Assay [6] deals with T5, OsGF14b mutant I210A, yeast two-hybrid fusion (rice, UniProt Q7XTE8 1-262).
T5 construct: not shown: yeast two-hybrid fusion partner encoded by pBTM116-GW or pVP16-GW, and its linker
T5 sequence: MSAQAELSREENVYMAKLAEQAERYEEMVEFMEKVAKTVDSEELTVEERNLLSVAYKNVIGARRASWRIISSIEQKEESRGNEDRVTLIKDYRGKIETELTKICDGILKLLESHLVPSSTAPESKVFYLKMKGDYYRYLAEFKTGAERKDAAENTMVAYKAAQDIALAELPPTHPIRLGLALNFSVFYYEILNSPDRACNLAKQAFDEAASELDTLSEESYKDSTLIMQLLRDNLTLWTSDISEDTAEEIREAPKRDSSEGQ
Kind of assay: yeast two-hybrid, growth on selective medium. The procedure: as §1, §2

For assay [7], the target named is T6, OsGF14b mutant Y221A, yeast two-hybrid fusion (rice, UniProt Q7XTE8 1-262).
T6 construct: not shown: two-hybrid fusion partner encoded by pBTM116-GW or pVP16-GW
T6 sequence: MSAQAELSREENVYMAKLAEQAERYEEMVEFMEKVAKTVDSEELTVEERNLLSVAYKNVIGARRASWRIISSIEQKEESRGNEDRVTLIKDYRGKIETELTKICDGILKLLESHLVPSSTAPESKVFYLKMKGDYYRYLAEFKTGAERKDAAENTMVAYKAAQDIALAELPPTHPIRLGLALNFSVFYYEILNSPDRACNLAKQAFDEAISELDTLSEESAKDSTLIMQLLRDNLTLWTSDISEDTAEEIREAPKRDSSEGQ
Kind of assay: yeast two-hybrid, growth on selective medium. The procedure:
as §1, §2

Assay [8] has as its target T7, OsGF14b (Os04g0462500), full-length, yeast two-hybrid fusion (rice, UniProt Q7XTE8 1-262).
T7 construct: not shown: two-hybrid fusion partner encoded by pBTM116-GW or pVP16-GW
T7 sequence: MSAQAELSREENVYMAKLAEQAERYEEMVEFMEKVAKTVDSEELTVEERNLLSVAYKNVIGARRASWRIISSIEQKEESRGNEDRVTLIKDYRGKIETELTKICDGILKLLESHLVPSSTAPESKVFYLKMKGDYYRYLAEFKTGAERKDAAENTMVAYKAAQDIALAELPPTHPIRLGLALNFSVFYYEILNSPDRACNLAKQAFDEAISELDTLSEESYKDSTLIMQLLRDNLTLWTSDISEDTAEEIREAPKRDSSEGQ
Kind of assay: yeast two-hybrid, growth on selective medium. The procedure:
as §1, §2

Assay [9] addresses T8, GF14b, full-length, Vn- or Vc-tagged (BiFC) (rice, UniProt Q7XTE8 1-262).
T8 construct: it is put first only for listing; also called OsGF14b; not shown: Vn or Vc fragment of Venus (BiFC tag), at the N- or C-terminal
T8 sequence: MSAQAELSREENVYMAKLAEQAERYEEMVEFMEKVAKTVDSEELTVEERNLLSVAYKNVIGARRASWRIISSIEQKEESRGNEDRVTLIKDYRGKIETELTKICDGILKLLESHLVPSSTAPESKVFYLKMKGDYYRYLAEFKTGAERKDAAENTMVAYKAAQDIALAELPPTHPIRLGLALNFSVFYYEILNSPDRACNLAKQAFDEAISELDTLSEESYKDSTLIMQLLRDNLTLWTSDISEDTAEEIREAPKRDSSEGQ
Kind of assay: BiFC (Venus) in rice Oc protoplasts. The procedure: (§3) (1) The transformation of rice Oc protoplasts was performed by a method described in Kyozuka and Shimamoto 1991, Plant J. 6, 271 (1994), Non Patent Literature 1, or the like. Fluorescent protein expression vectors having introduced therein various proteins were introduced into a protoplast suspension (2×10⁷ protoplasts/ml) by a PEG method (PEG-mediated method). After incubation at 30° C. for 24 hours, transformed protoplasts were obtained and used for microscopic observation.
(§4) Therefore, the number of cells showing higher values than the above-mentioned values was scored.

Assay [10] deals with T9, Hd3a, full-length, Vn- or Vc-tagged (BiFC) (rice, UniProt Q93WI9 1-179).
T9 construct: it is put first only for listing; not shown: Vn or Vc fragment of Venus (BiFC tag), at the N- or C-terminal
Kind of assay: BiFC (Venus) in rice Oc protoplasts (endogenous 14-3-3 proteins present). How it is done: as §3, §4

Assay [11] deals with T10, GST-fused Hd3a protein (full-length Hd3a) (rice, UniProt Q93WI9 1-179).
T10 construct: also called GST-Hd3a; not shown: GST (glutathione S-transferase) fusion partner
The assay is described as follows: in vitro GST pull-down, GST-Hd3a on glutathione resin, SDS-PAGE. The procedure:
After that, the resin was washed with a phosphate buffer (pH 6.8) containing 50 mM KCl and 1 mM DTT to remove a free GST-fused protein unbound to the resin. The isolated and purified GST protein bound to the resin was used as a negative control. […] After that, the resins were washed with a phosphate buffer (pH 6.8) containing 50 mM KCl and 1 mM DTT to remove a free GST-GF14c polypeptide unbound to the resins. Each of the bound proteins was eluted with a phosphate buffer (pH 6.8) containing 50 mM glutathione, 50 mM KCl, and 1 mM DTT and confirmed by SDS polyacrylamide electrophoresis.

Assay [12] concerns the target T11, GF14c residues 1 to 235 (crystallization construct) (rice, UniProt Q6ZKC0 1-235).
T11 construct: Expressed in E. coli and purified; co-crystallized with Hd3a 6-170; also called 14-3-3 protein
T11 sequence: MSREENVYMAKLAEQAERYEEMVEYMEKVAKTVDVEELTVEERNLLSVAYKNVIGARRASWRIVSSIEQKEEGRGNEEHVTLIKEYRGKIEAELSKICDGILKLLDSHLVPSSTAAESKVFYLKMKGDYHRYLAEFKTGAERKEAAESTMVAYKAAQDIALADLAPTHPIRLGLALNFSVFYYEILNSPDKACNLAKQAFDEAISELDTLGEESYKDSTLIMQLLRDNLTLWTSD
Kind of assay: X-ray crystal structure of the florigen activation complex; peptide soaked into Hd3a-GF14c crystals. The procedure:
The crystallization of the complex was performed at 4° C. by a sitting drop method using a mixture of 1 μl of the protein solution (protein concentration: 10 mg/mL) and 1 μl of a precipitant solution (0.1 M HEPES (pH 7.5), 0.2 M ammonium sulfate, and 25% PEG 3350).

Where no end group is shown, it is not given here. [ ]: non-standard residue; d: D form. pS = N[C@@H](COP(=O)(O)O)C(=O)O

T10 sequence (Q93WI9 whole entry, the tested form may be a part): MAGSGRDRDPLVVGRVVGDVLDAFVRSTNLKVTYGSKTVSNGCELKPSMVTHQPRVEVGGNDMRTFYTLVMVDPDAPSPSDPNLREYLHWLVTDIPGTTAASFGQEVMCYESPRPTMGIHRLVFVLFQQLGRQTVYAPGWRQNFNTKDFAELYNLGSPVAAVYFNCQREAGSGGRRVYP
T9 sequence (Q93WI9 whole entry, the tested form may be a part): as above

In the case of “Hd3a-GFP-fused protein (full-length Hd3a coding region conjugated to GFP) (from UniProt Q93WI9 1-179)”, the Days to flowering (days) of transgenic rice in [1] was found to be 19.6 days.

On to “Hd3a(R64G/R132A)-GFP (prolC::Hd3a(R64G/R132A)::GFP) (from UniProt Q93WI9 1-179)”, for which the Days to flowering (days) of transgenic rice in assay [1] turned out to be 58.8 days.

As for “Hd3a(R64G)-GFP (prolC::Hd3a(R64G)::GFP) (from UniProt Q93WI9 1-179)”, in assay [1], the Days to flowering (days) of transgenic rice was 44.2 days.

B1: OsFD1 (Os09g0540800), full-length, yeast two-hybrid fusion (other)
chain: MAMEDDEDMWANTSSPSASPPRPRGFISTALSLNSTHLQGLLPSSFVDAAASPCHASGNNNGGGDGRNAAPMSSIFFASASYHQQQHHLPAPAPLDGAILPARRFGLDMCAAAAAAPAGVPAAGDRRKRRMIKNRESAARSRARKQARVNNLETEVEQLKQENKMLRVKYEQLRKTVEVPVPVRRTLQRVLSAPF
notes: not shown: two-hybrid fusion partner encoded by pBTM116-GW or pVP16-GW
As to B1, the binding result in [2], in assay [3], in assay [4], in assay [5], in assay [6] and in [7] was “binds” each time. Further, the binding result in assay [8] was “binds”.

B2: OsFD1, full-length, Vn- or Vc-tagged (BiFC) (other)
chain: MAMEDDEDMWANTSSPSASPPRPRGFISTALSLNSTHLQGLLPSSFVDAAASPCHASGNNNGGGDGRNAAPMSSIFFASASYHQQQHHLPAPAPLDGAILPARRFGLDMCAAAAAAPAGVPAAGDRRKRRMIKNRESAARSRARKQARVNNLETEVEQLKQENKMLRVKYEQLRKTVEVPVPVRRTLQRVLSAPF
notes: it is put first only for listing; not shown: Vn or Vc fragment of Venus (BiFC tag), at the N- or C-terminal
Consider B2, for which the binding result in assay [9] and in assay [10] was “binds” throughout.

On to ARVNNLETEVEQLKQENKMLRVKYEQLRKTVEVPVPVRRTLQRVLEAPF (other), for which the binding result in [11] is listed as “no binding”.

Regarding LQRVL[pS]APF (Soaked at 2 mM into Hd3a-GF14c crystals) [OsFD1 polypeptide, residues 187 to 195, chemically synthesized], the binding result in assay [12] is on record as “binds”.
